From IntAct's records for PubMed 29983246

B1: Mitochondrial-derived peptide MOTS-c (Homo sapiens), A0A0C5B5G6 (parent)
chain: MRWQEMGYIFYPRKLR
partner: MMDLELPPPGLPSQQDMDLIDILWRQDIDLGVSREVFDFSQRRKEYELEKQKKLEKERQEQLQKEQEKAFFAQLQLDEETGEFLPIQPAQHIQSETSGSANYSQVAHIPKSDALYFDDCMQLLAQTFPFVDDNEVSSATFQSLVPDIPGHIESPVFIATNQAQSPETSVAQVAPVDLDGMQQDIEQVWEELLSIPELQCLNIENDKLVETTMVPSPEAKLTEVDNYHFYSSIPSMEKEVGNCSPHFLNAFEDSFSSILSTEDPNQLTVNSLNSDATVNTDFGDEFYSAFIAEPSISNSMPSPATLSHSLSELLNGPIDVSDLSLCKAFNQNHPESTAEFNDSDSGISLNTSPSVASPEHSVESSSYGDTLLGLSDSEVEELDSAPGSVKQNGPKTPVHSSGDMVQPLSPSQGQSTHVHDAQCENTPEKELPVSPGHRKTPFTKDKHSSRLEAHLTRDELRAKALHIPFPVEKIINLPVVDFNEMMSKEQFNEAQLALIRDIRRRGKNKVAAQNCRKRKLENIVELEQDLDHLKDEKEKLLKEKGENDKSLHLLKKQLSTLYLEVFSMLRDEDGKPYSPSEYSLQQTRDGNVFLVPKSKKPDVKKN

Variants of: B1
Conditions: with nf2l2_human NFE2L2, Q16236

effect of a mutation on the interaction	Variant
with no effect	MRWQEMGYIFYPAAAA
